Numbering of substitutions follows the chain as printed. Numbers in names are those of the source.

Assay [1] concerns the target T1, human PD-L1 ECD-His (human, UniProt Q9NZQ7 19-238).
T1 construct: extracellular domain; Analyte in all SPR and BLI runs; also called hPD-L1_ECD-His; hPD-L1 ECD-His; not shown: His tag
The assay is described as follows: SPR, 25 C, antibody captured by anti-human IgG Fc, hPD-L1_ECD-His analyte, 1:1 fit. As to the method: Experiments were carried out at 25° C., and measurements were made with serial dilutions of hPD-L1_ECD-His from 55.4 nM to 11.1 nM passing over the captured antibodies in HBS-P+ buffer supplemented with 0.1% (w/v) BSA with a flow rate of […]. All data were analyzed with the evaluation software and curves were fit with a 1:1 Langmuir binding model. Data are representative of two independent experiments performed in duplicate.
A general note: SPR reads the build-up and loss of mass on a sensor chip optically.

For assay [2], the target named is T1, human PD-L1 ECD-His. As to the kind of experiment: BLI, ratio of KD to ref-1. As to the method:
(§1) Briefly, black 96-well plate was prepared with columns containing 200 μL/well of reagents required for determination of affinity. In general, Octet SA sensors were first placed in wells containing 1×Kinetics Buffer (PBS, 0.1% BSA, 0.02% Tween-20, pH 7.4) for 180 seconds to establish a baseline. […] Sensors were then regenerated by 3×5 second incubations in Regeneration Buffer (10 mM Glycine, pH 1.5) followed by a 5 second incubation in 1×Kinetics Buffer each time. Regeneration was repeated before measurement of each association/dissociation cycle. Sensors were then placed in fresh 1×Kinetics Buffer for 180 seconds to establish a baseline. Association was then measured by incubating the sensors for 5 minutes in wells containing hPD-L1-His followed by transferring to wells containing 1×Kinetics Buffer for 10 minutes to measure dissociation. Kinetics (ka, kd, and […] were measured by global fitting four association/dissociation cycles of data obtained from 1:3 serial dilutions of hPD-L1-His from 38.28 nM to 1.42 nM (one association/dissociation cycle for one concentration) with a 1:1 Langmuir binding model. All data were analyzed with Octet Data Analysis Software v.9.0 and representative of two independent experiments performed in duplicate.
(§2) All the data are representative of two independent experiments performed in duplicate.
A general note: Biolayer interferometry detects binding as a change in optical thickness at a sensor tip.

For assay [3], the target named is T1, human PD-L1 ECD-His. The assay is described as follows: BLI Octet RED96, biotinylated antibody on SA sensor, hPD-L1-His analyte, 1:1 fit. As to the method:
as §1, §2

In assay [4] the target is T2, recombinant cynomolgus monkey PD-L1_ECD Fc-fusion protein (Sino Biological Inc.) (cynomolgus monkey, UniProt G7PSE7 19-238).
T2 construct: Bought
The assay is described as follows: ELISA: cynomolgus monkey PD-L1_ECD/Fc coated (9 ng/well), peroxidase-labeled goat anti-human IgG F(ab)'2, TMB, OD450. As to the method:
The recombinant cynomolgus monkey PD-L1_ECD Fc-fusion proteins were purchased from Sino Biological Inc. PD-L1_ECD/Fc (9 ng per well) were immobilized onto 96-well assay plat by incubating overnight at 4° C. Nonspecific binding sites were blocked using 5% skim milk in PBS for one hour at room temperature. After washing plates three times with PBST, indicated concentrations of anti-PD-L1 antibodies and HLX01 (negative control) were incubated with the immobilized proteins for one hour at room temperature. The plates were washed three times with PBST and then incubated for one hour at room temperature with peroxidase-labeled goat anti-human IgG F(ab)′2 (Jackson ImmunoResearch Laboratories) diluted 1/10,000 in PBS. After washing, plates were developed using TMB (eBioscience). The absorbance was read at the wavelength of 450 nm by Varioskan LUX microplate reader (Thermo Scientific).
HLX01 (anti-CD20 mAb) was used as the negative control.
(ELISA stands for enzyme-linked immunosorbent assay.)

For assay [5], the target named is T1, human PD-L1 ECD-His. The assay is described as follows: SPR, ratio of KD to ref-1.
Assay [6] has as its target T1, human PD-L1 ECD-His. The assay is described as follows: SPR, hPD-L1-His, PL3 variants.
The target in assay [7] is T3, human PD-L1 on cells (PHA-activated human T cells); PD-L1-transfected CHO-S cells; A375 melanoma cells; … (human, UniProt Q9NZQ7 19-290).
T3 construct: whole, on cells; also called PD-L1 expressing T cells; PD-L1 expressing CHO-S cells
The assay is described as follows: flow cytometry on PHA-activated human CD3+ T cells, FITC-labeled anti-human IgG Fcγ, MFI. As to the method: Human T cells were isolated from PBMC using MagniSortTM Human T Cell Enrichment Kit (eBioscience). Isolated T cells were activated by 5 μg/mL phytohemagglutinin (PHA) for 3 days to stimulate the PD-L1 expression. Activated T cells were collected and incubated in FACS buffer (PBS with 2% FBS) with human Fc blocker (eBioscience) for 20 minutes at 4° C. Binding of anti-PD-L1 monoclonal antibody was assessed by incubating the activated T cells with the serial-diluted antibodies in FACS buffer. The cells were washed with flow buffer and the binding was detected with a FITC-labeled rabbit anti-human IgG FcγAb. Cells were also stained with mouse anti-human CD3 PE-Cy7 (eBioscience) for gating CD3-positive T cells. Flow cytometric analyses were performed using the Cytomics FC 500 (Beckman Coulter Inc.).

Assay [8] concerns the target T3, human PD-L1 on cells (PHA-activated …). As to the kind of experiment: flow cytometry blocking assay: PD-L1 expressing CHO-S cells incubated with antibody, then biotin-labeled PD-1-Fc and streptavidin-PE; MFI of bound PD-1. As to the method:
PD-L1 expressing CHO-S cells were suspended in FACS buffer (PBS with 4% FBS). Various concentrations of tested antibodies were added to the cell suspension (3.5E5 cells/well) and incubated at 4° C. for 30 minutes. […] The cells were washed and then stained with streptavidin-PE at 4° C. for 30 minutes. Flow cytometric analyses were performed using the Cytomics FC 500 (Beckman Coulter Inc.).
Anti-PD-L1 reference antibody and Avastin were used as the positive and negative control, respectively.

The target in assay [9] is T1, human PD-L1 ECD-His. As to the kind of experiment: SPR, ratio of KD to ref-1. As to the method: (§3) The binding affinity and kinetics were measured using surface plasmon resonance (SPR). […] Experiments were carried out at 25° C., and measurements were made with serial dilutions of hPD-L1-His from 19.1 nM to 0.71 nM passing over the captured antibodies in HBS-P+buffer supplemented with 0.1% (w/v) BSA with a flow rate of 25 μL/min. All data were analyzed with the evaluation software and curves were fit with a 1:1 Langmuir binding model. All the data are representative of two independent studies performed in duplicate.
The source holds these as a separate data set.

Assay [10] deals with T1, human PD-L1 ECD-His. As to the kind of experiment: SPR, 25 C, antibody captured by anti-human IgG Fc, hPD-L1-His analyte, 1:1 fit. As to the method:
as §3

T1 sequence (Q9NZQ7 19-238): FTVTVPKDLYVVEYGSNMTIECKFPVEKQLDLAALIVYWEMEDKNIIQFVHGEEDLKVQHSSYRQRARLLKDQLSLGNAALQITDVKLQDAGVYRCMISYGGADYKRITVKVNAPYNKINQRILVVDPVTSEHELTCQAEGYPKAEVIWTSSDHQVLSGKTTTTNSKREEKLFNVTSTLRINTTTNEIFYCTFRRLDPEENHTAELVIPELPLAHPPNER
T3 sequence (Q9NZQ7 19-290): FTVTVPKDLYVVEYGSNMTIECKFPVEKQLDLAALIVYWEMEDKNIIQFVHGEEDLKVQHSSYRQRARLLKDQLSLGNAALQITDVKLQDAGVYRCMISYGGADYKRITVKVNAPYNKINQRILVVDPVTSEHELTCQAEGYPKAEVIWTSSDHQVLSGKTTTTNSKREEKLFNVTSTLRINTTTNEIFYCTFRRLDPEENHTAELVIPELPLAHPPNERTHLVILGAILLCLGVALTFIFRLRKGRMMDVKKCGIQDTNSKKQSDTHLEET
T2 sequence (G7PSE7 entry or part of it limits assumed): as the sequence (Q9NZQ7 19-238) above, with A33T, A34S, S62N, R68Q, Q82R, F173L, T185A, T192I, H215L counted along it

B1: PL8 (full-length, N297A mutant human IgG1) (antibody, V domains shown)
VH: EVQLVQSGAEVKKPGSSVKVSCKASGGTFSSYAISWVRQAPGQGLEWMGRIIPIFGTANYAQKFQGRVTITADESTSTAYMELSSLRSEDTAVYYCAREGVLDAFDIWGQGTMVTVSS
VL: LSSELTQDPAVSVALGQTVRITCQGDSLRSYYVSWYQQKPGQAPVLVLYGKNNRPSGIPDRFSGSSSGSTASLTITGAQAEDEADYYCNSRDSTGNLLRVFGGGTKLTVLG
What is called Kd is the concentration at which binding is half-saturated. A word on the koff: it is the rate constant with which the complex falls apart. By kon is commonly meant the second-order rate constant of association. Take B1: in the assay with human PD-L1 ECD-His [1], the affinity, expressed as Kd, was 8.85 nM; the off-rate constant (koff) stood at 0.00348 s⁻¹; the kon is 382000 M⁻¹ s⁻¹.

B2: PL3#7 mtIgG1 (antibody, V domains shown)
VH: QVQLVQSGAEVKKPGSSVKVSCKASGGTFSSYPISWVRQAPGQGLEWIGRIIPILGIANYAQKFQGRVTITADKSTSTAYMELSSLRSEDTAVYYCARSRDGYAFGAFDIWGQGTLVTVSS
VL: QSVVTQPPPVSGAPGQRVTISCTGSSSNIGAGYDVHWYQQLPGTAPKLLIYGNSNRPSGVPDRFSGSKSGTSASLAITGLQAEDEADYYCQTYDSSLSARVVFGGGTKLTVLG
modifications: Antibody was biotinylated (NHS-PEG4-biotin, sites not specified) for the Octet assay of Table 11.
notes: N297A mutant human IgG1
As a reminder, the EC50 (read off the curve) is the midpoint of the concentration-response curve. For the molecule B2, the “Improvement over ref-1” value in the assay with human PD-L1 ECD-His [2] worked out at 2.26 fold. Besides, in the assay with human PD-L1 ECD-His [3], the Kd stood at 1.09 nM, the koff was 0.000305 s⁻¹ and the kon came out at 298000 M⁻¹ s⁻¹. Besides, in assay [4], the “EC50 (read off the curve)” value was about 0.04 µg/mL.

B3: PL3#7 IgG1 (antibody, V domains shown)
VH: B2 VH
VL: QSVVTQPPPVSGAPGQRVTISCTGSSSNIGAGYDVHWYQQLPGTAPKLLIYGNSNRPSGVPDRFSGSKSGTSASLAITGLQAEDEADYYCQTYDSSLSARVVFGGGTKLTVL
notes: Human IgG1
For the molecule B3, in the assay with human PD-L1 ECD-His [5], the “Improvement over ref-1” value is 1.38 fold. In the assay with human PD-L1 ECD-His [6], this molecule gave a Kd of 0.457 nM, a koff of 0.000444 s⁻¹ and a kon of 997000 M⁻¹ s⁻¹.

B4: PL3#7 IgG2 (antibody, V domains shown)
VH: B2 VH
VL: B3 VL
notes: Human IgG2
B4: the “Improvement over ref-1” value in the assay with human PD-L1 ECD-His [5] is 1.81 fold. In the assay with human PD-L1 ECD-His [6], this molecule had a Kd of 0.349 nM, a koff of 0.000327 s⁻¹ and an on-rate (kon) of 995000 M⁻¹ s⁻¹.

B5: PL15 (full-length, N297A mutant human IgG1) (antibody, V domains shown)
VH: B2 VH with P33T, I48M, A104S
VL: QSVLTQPPSVSGAPGQRVTISCTGYSSNIGAGYDVHWYQHLPGTAPKLLIYGNSNRPSGVPDRFSGSKSGTSASLAITGLQAEDEADYYCQSYDNSLSVSVFGGGTKLTVLG
In the assay with human PD-L1 ECD-His [1], B5 displayed a Kd of 15 nM, a koff of 0.00933 s⁻¹ and a kon of 645000 M⁻¹ s⁻¹. The “EC50 (read off the curve)” value in assay [7] was about 0.03 µg/mL. Also, the “IC50 (read off the curve)” value in assay [8] was about 0.06 µg/mL.

B6: PL3#7 IgG4 (antibody, V domains shown)
VH: B2 VH
VL: B3 VL
notes: Human IgG4
On to B6, for which, in the assay with human PD-L1 ECD-His [5], the “Improvement over ref-1” value was determined as 1.97 fold. In the assay with human PD-L1 ECD-His [6], this molecule gave a Kd of 0.321 nM, a koff of 0.000362 s⁻¹ and a kon of 1.14e+06 M⁻¹ s⁻¹.

B7: PL3#1 IgG2 (antibody, V domains shown)
VH: B2 VH with P33R, I48M, A104S, F105V, I110S
VL: B3 VL with N55R, A99R, R100P
notes: Human IgG2
For B7, in the assay with human PD-L1 ECD-His [5], the “Improvement over ref-1” value is 0.85 fold. In the assay with human PD-L1 ECD-His [6], this molecule yielded a Kd of 0.74 nM, a koff of 0.00067 s⁻¹ and a kon of 931000 M⁻¹ s⁻¹.

B8: PL3#1 mtIgG1 (N297A) (antibody, V domains shown)
VH: B2 VH with P33R, I48M, A104S, F105V, I110S
VL: B3 VL with N55R, A99R, R100P
notes: N297A mutant human IgG1
For the molecule B8, in the assay with human PD-L1 ECD-His [5], the “Improvement over ref-1” value amounted to 1.73 fold. In the assay with human PD-L1 ECD-His [6], binding was put at a Kd of 0.366 nM, the koff was 0.000395 s⁻¹ and the kon came out at 1.1e+06 M⁻¹ s⁻¹.

B9: PL3 IgG1 (antibody, V domains shown)
VH: B2 VH with P33T, I48M, A104S
VL: B3 VL with T92S, R100P
In the case of B9, the “Improvement over ref-1” value with human PD-L1 ECD-His [5] was 0.12 fold. In the assay with human PD-L1 ECD-His [6], this molecule came in with a Kd of 5.46 nM, a koff of 0.00291 s⁻¹ and a kon of 542000 M⁻¹ s⁻¹.

B10: PL3 IgG2 (antibody, V domains shown)
VH: B2 VH with P33T, I48M, A104S
VL: B3 VL with T92S, R100P
notes: Human IgG2
As for B10, the “Improvement over ref-1” value with human PD-L1 ECD-His [5] is 0.1 fold. In the assay with human PD-L1 ECD-His [6], this molecule returned a Kd of 6.64 nM, a koff of 0.00277 s⁻¹ and a kon of 417000 M⁻¹ s⁻¹.

B11: PL2 IgG2 (antibody, V domains shown)
VH: EVQLVQSGGGLVKPGGSLRLSCAASGFTFSSYTMNWVRQAPGKGLEWVSSISSGSDYLYYADSVKGRFTISRDNAKNSLYLQMNSLRAEDTAVYYCARNELRWYPQAGAFDIWGQGTMVTVSS
VL: QSVVTQPPSMSAAPGQNVTISCSGSSSYIESSYVSWYQQLPGTAPRLLIYDDDMRPSGIPDRFSGSKSGTSATLAITGLQTGDEADYYCEIWDSGLGGVFGGGTKLTVL
For the molecule B11, the “Improvement over ref-1” value with human PD-L1 ECD-His [9] was 1.21 fold. In the assay with human PD-L1 ECD-His [10], this molecule came in with a Kd of 6.96 nM, a koff of 0.00217 s⁻¹ and a kon of 747000 M⁻¹ s⁻¹.

B12: PL6 (full-length, N297A mutant human IgG1) (antibody, V domains shown)
VH: EVQLVQSGAEVKKPGSSVKVSCKASGGTFSSYTINWVRQAPGQGLEWVGKIIPILGIADYAQMFKGRVTITADKFTSTVYMELNSLRSEDTAVYYCARGGYVGYLNAFDIWGQGTMVTVSS
VL: B5 VL with L4V, Y25S, H40Q, N95S, V99G, S100G
As to B12, in the assay with human PD-L1 ECD-His [1], the Kd is 11.2 nM, the koff stood at 0.0122 s⁻¹ and the on-rate (kon) came to 1.05e+06 M⁻¹ s⁻¹. Moreover, the “IC50 (read off the curve)” value in assay [8] was about 0.03 µg/mL.

(Values after patent US20190225691A1 (SHANGHAI HENLIUS BIOTECH, published 2019).)
